From IntAct's records for PubMed 17306257

B1: SH3 domain-binding protein 2 (Homo sapiens), P78314 (parent)
chain: MAAEEMHWPVPMKAIGAQNLLTMPGGVAKAGYLHKKGGTQLQLLKWPLRFVIIHKRCVYYFKSSTSASPQGAFSLSGYNRVMRAAEETTSNNVFPFKIIHISKKHRTWFFSASSEEERKSWMALLRREIGHFHEKKDLPLDTSDSSSDTDSFYGAVERPVDISLSPYPTDNEDYEHDDEDDSYLEPDSPEPGRLEDALMHPPAYPPPPVPTPRKPAFSDMPRAHSFTSKGPGPLLPPPPPKHGLPDVGLAAEDSKRDPLCPRRAEPCPRVPATPRRMSDPPLSTMPTAPGLRKPPCFRESASPSPEPWTPGHGACSTSSAAIMATATSRNCDKLKSFHLSPRGPPTSEPPPVPANKPKFLKIAEEDPPREAAMPGLFVPPVAPRPPALKLPVPEAMARPAVLPRPEKPQLPHLQRSPPDGQSFRSFSFEKPRQPSQADTGGDDSDEDYEKVPLPNSVFVNTTESCEVERLFKATSPRGEPQDGLYCIRNSSTKSGKVLVVWDETSNKVRNYRIFEKDSKFYLEGEVLFVSVGSMVEHYHTHVLPSHQSLLLRHPYGYTGPR

Variants of: B1
Conditions: with sh3k1_human SH3KBP1, Q96B97
sh3k1_human SH3KBP1, Q96B97, sequence (Q96B97 whole entry): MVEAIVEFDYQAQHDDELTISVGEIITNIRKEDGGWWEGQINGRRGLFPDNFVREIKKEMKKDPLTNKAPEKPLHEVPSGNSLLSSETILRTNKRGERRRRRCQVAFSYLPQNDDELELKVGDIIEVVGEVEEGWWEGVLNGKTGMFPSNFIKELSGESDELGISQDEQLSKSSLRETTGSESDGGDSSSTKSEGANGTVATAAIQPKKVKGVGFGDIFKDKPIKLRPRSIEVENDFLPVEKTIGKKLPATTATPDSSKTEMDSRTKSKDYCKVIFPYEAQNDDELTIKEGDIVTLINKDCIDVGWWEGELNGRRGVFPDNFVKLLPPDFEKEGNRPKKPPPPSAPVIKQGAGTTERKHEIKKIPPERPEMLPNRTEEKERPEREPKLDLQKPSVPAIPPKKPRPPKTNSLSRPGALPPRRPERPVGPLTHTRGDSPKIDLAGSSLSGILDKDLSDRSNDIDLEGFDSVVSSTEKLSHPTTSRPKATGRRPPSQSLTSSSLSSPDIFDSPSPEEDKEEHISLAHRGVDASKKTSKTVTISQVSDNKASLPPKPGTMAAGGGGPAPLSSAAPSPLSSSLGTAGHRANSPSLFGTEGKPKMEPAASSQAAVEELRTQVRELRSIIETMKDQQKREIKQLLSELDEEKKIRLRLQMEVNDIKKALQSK

Variant	effect of a mutation on the interaction
R213A	decreasing interaction
